# Measurements published in patent US20210332115A1.
# Molecular target: cynomolgus monkey factor Bb (cynomolgus monkey)
# Test: BLI Octet, biotinylated antibody on SA biosensors
row,Kd [nM],Binder
1,11,"Anti-factor Bb mouse monoclonal antibody (antibody, V domains shown) VH: EVQLVESGGALVKPGGSLKLSCAASGFTFSNYAMSWVRQTPEKRLEWVATISNRGSYTYYPDSVKGRFTISRDNAKNTLYLQMSSLRSEDTALYYCARERPMDYWGQGTSVTVSS VL: DIVMTQSHKFMSTSVGDRVSITCKASQDVGTAVAWYQQKPGQSPKLLIYWASTRHTGVPDRFTGSGSGTDFTLTITNVQSEDLAVYFCHQHSSNPLTFGAGTKLELK"
2,11,"VH4/Vκ7 (antibody, V domains shown) VH: EVQLVESGGGLVKPGGSLRLSCAASGFTFSNYAMSWVRQAPGKRLEWVATISNRGSYTYYPDSVKGRFTISRDNAKNSLYLQMSSLRSEDTALYYCARERPMDYWGQGTSVTVSS VL: DIQMTQSPSTLSASVGDRVTITCKASQDVGTAVAWYQQKPGKAPKLLIYWASTRHTGVPDRFSGSGSGTDFTLTISSLQAEDFAVYFCHQHSSNPLTFGQGTKLEIK"
3,16,"VH7/Vκ7 (antibody, V domains shown) VH: EVQLVESGGGLVKPGGSLRLSCAASGFTFSNYAMSWVRQTPEKRLEWVATISNRGSYTYYPDSVKGRFTISRDNAKNSLYLQMNSLRAEDTALYYCARERPMDYWGQGTLVTVSS VL: DIQMTQSPSTLSASVGDRVTITCKASQDVGTAVAWYQQKPGKAPKLLIYWASTRHTGVPDRFSGSGSGTDFTLTISSLQAEDFAVYFCHQHSSNPLTFGQGTKLEIK"
4,11,"VH6/Vκ6 (antibody, V domains shown) VH: EVQLVESGGGLVKPGGSLRLSCAASGFTFSNYAMSWVRQAPGKRLEWVATISNRGSYTYYPDSVKGRFTISRDNAKNSLYLQMNSLRAEDTALYYCARERPMDYWGQGTLVTVSS VL: DIVMTQSPSFLSASVGDRVTITCKASQDVGTAVAWYQQKPGKAPKLLIYWASTRHTGVPDRFTGSGSGTDFTLTISSLQSEDFAVYFCHQHSSNPLTFGQGTKLEIK"
